This note sets out measurements from patent US20100093608A1 (Eli Lilly, published 2010).

For test [1], the target named is T1, erythropoietin receptor on TF-1 cells (UniProt P19235 25-508, limits assumed).
T1 sequence (looked up): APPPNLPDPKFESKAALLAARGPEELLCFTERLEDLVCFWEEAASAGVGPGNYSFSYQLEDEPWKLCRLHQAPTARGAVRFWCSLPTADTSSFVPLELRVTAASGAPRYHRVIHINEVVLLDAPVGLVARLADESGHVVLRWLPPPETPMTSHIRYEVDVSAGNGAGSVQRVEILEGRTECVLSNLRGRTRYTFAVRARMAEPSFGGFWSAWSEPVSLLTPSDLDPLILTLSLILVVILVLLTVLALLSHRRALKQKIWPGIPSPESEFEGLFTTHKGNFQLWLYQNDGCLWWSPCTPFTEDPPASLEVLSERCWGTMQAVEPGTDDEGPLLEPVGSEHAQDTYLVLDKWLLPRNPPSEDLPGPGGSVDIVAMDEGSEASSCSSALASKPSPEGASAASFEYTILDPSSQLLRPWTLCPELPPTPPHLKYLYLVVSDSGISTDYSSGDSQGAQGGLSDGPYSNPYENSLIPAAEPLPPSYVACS

Test [2] addresses T1, erythropoietin receptor on TF-1 cells. This is another data set of the same source.
Test [3] shares this target. The source holds these as a separate data set.
For test [4] the target is unchanged. Kind of test: cell-based or functional assay.
Test [5] shares this target. In words: cell-based or functional assay. This is another data set of the same source.
For test [6] the target is unchanged. In words: cell-based or functional assay. The source holds these as a separate data set.
Test [7] has the same target. Kind of test: cell-based or functional assay. The source holds these as a separate data set.

Like-named read-outs stand apart in the source and are kept apart here.

On to A128 (ligand), for which the Relative activity compared to wt fEPO (TF-1 proliferation) in test [1] is 1.4 X. Besides, the fold more active than WT (TF-1 proliferation, EC 50 ng/ml) in test [2] was 1.4 x.

D55 (ligand) yielded a Relative activity compared to wt fEPO (TF-1 proliferation) in test [1] of 1.4 X.

In test [1], E21 (ligand) gave a Relative activity compared to wt fEPO (TF-1 proliferation) of 3.1 X.

Turning to E31 (ligand), in test [1], the Relative activity compared to wt fEPO (TF-1 proliferation) was 1.4 X.

In test [1], E37 (ligand) returned an EC50 (read off the curve) of 3 ng/mL and a Relative activity compared to wt fEPO (TF-1 proliferation) of 1.2 X.

As to E72 (ligand), in test [3], the EC50 (TF-1 proliferation, 450nm; stored 5 weeks at +4 degrees C) was determined as 2.1 ng/mL and the EC50 (TF-1 proliferation, 450nm; stored 5 weeks at -80 degrees C) turned out to be 2.1 ng/mL. Further, the Relative activity compared to wt fEPO (TF-1 proliferation) in test [1] was 1.2 X.

As to F133 (ligand), the Relative activity compared to wt fEPO (TF-1 proliferation) in test [1] came to 2.2 X.

On to K116 (ligand), for which the Relative activity compared to wt fEPO (TF-1 proliferation) in test [1] was determined as 0.7 X.

In test [1], L130 (ligand) came in with a Relative activity compared to wt fEPO (TF-1 proliferation) of 2.6 X.

On to P129 (ligand), for which, in test [1], the Relative activity compared to wt fEPO (TF-1 proliferation) was found to be 0.9 X.

R53 (ligand) showed a Relative activity compared to wt fEPO (TF-1 proliferation) in test [1] of 1.6 X.

In turn, R76 (ligand) returned a Relative activity compared to wt fEPO (TF-1 proliferation) in test [1] of 0.6 X. Also, the fold less active than WT (TF-1 proliferation, EC 50 ng/ml) in test [2] came to 1.6 x.

R131 (ligand): in test [1], the Relative activity compared to wt fEPO (TF-1 proliferation) is 0.8 X.

For R163 (ligand), the Relative activity compared to wt fEPO (TF-1 proliferation) in test [1] turned out to be 1.1 X.

Regarding S36 (ligand), in test [1], the Relative activity compared to wt fEPO (TF-1 proliferation) amounted to 0.9 X.

S120 (ligand): the Relative activity compared to wt fEPO (TF-1 proliferation) in test [1] came out at 1.6 X.

T132 (ligand) showed a Relative activity compared to wt fEPO (TF-1 proliferation) in test [1] of 3.2 X.

As to Y49 (ligand), the Relative activity compared to wt fEPO (TF-1 proliferation) in test [1] was determined as 2.6 X.

B1: wild type feline erythropoietin (fEPO) (ligand)
chain: APPRLICDSRVLERYILEAREAENVTMGCAEGCSFSENITVPDTKVNFYTWKRMDVGQQAVEVWQGLALLSEAILRGQALLANSSQPSETLQLHVDKAVSSLRSLTSLLRALGAQKEATSLPEATSAAPLRTFTVDTLCKLFRIYSNFLRGKLTLYTGEACRRGDR
On to B1, for which the “EC50 (read off the curve)” value in test [4] was about 3 ng/mL. Moreover, the “EC50 (TF-1 proliferation, 450nM)” value in test [5] worked out at 3.2 ng/mL. The “EC50 (read off the curve)” value in test [6] was about 2 ng/mL. In addition, in test [7], the “EC50 (TF-1 proliferation; Starting [fEPO] 250ng/ml; Theoretical Activity 0.5x, Actual Activity 0.6x)” value stood at 4.7 ng/mL; the “EC50 (TF-1 proliferation; Starting [fEPO] 500ng/ml; Theoretical Activity 1x, Actual Activity 1x)” value is 2.8 ng/mL; the “EC50 (TF-1 proliferation; Starting [fEPO] 1000ng/ml; Theoretical Activity 2x, Actual Activity 2x)” value came out at 1.4 ng/mL.

As a reminder, the EC50 (read off the curve) is the concentration needed to bring the measured effect to its halfway point. A higher EC50 (read off the curve) goes with lower potency in that assay.
